Laboratory results published in patent US12247244B2, “Membrane protein activity measurement method” (THE UNIVERSITY OF TOKYO, priority 2018, dated 2025).

Molecular target: T1, human Flt3 (hFlt3) (Homo sapiens, UniProt P36888)
T1 construct: expressed in transfected cells; host or cells: NCP19 cells (HeLa-derived knock-in clone)
T1 sequence (P36888 27-993): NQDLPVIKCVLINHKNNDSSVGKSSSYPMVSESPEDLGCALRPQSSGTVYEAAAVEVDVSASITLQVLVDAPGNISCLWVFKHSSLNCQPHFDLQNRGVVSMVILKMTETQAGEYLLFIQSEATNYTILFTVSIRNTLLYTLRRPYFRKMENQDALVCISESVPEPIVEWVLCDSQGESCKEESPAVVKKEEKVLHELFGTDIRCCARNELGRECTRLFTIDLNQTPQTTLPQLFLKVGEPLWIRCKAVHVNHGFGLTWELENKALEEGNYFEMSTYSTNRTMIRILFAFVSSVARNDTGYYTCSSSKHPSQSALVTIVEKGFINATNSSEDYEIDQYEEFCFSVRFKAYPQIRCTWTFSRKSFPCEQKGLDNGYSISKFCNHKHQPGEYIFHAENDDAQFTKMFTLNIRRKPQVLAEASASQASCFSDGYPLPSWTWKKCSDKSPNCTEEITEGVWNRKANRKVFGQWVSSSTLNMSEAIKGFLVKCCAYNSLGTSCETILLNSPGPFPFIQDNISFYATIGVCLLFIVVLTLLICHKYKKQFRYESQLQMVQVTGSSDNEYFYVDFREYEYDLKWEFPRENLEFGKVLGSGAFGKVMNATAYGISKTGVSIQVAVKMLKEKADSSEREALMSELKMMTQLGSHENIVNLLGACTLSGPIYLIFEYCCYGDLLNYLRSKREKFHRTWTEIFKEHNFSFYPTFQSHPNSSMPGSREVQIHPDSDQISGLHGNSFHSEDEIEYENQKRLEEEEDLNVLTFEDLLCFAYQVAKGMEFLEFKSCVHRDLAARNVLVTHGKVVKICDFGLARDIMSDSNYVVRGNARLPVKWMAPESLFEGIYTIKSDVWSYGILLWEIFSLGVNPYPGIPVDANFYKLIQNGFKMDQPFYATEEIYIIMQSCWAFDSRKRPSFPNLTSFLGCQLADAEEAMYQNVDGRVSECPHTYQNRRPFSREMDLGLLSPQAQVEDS
Assay: NCP19 knock-in reporter cell assay (UAS-luciferase) for hFlt3 activation
Format: cell-based
Conditions: NCP19 cells transfected with hFlt3; ligand 30, 3, 0.3, 0.03, 0 ng/ml; stimulation for 6 hours; FIG. 12
Procedure: • Used cells: NCP19 • Used plasmids: • (1) a plasmid that expresses hFlt3 (an hFlt3 expression plasmid); and • (2) UAS-luciferase. • Day 1: NCP19 cells were seeded on a 96-well plate at a density of 24000 cells/well. • Day 2: Within 24 hours after the seeding on the 96-well plate, 90 ng of DNA per well (a plasmid cocktail consisting of 60 ng of hFlt3+30 ng of UAS-luciferase) was transfected into the cells according to a lipofection method. • Day 3: Twenty-four hours after the transfection, the cells were stimulated by a ligand (Flt3-ligand: at concentrations of 30, 3, 0.3, 0.03, and 0 ng/ml). After the stimulation for 6 hours, a culture supernatant was discarded, and a substrate for luciferase was added, and then, luminescence signals were measured using a plate reader.

B1: Flt3-ligand: ligand used to stimulate the receptor tyrosine kinase hFlt3 (protein)
chain: TQDCSFQHSPISSDFAVKIRELSDYLLQDYPVTVASNLQDEELCGGLWRLVLAQRWMERLKTVAGSKMQGLLERVNTEIHFVTKCAFQPPPSCLRFVQTNISRLLQETSEQLVALKPWITRQNFSRCLELQCQPDSSTLPPPWSPRPLEATAPTA
B1 was tested, and the “activation of hFlt3, luminescence of luciferase” value was “detected as the luminescence of luciferase”.
